# Assay results reported in publication PMC2570331.
# Experiments:
# Test in all cases: split reporter (BiFC, NanoBiT); CFP 1-158 on the N-terminus of α12.2 (WT, Bdel1 or Bdel2), CFP 159-238 on the C-terminus of β3core; HEK-293 cells co-transfected with α2δ1 and an RFP (mCherry or DsRed-Monomer, pooled); median of the cyan/red ratio of single cells
# [1] = target: WT α12.2 tagged with the CFP 1–158 fragment (rat)
# [2] = target: Bdel2 α12.2 tagged with the CFP 1–158 fragment (rat)
# [3] = target: Bdel1 α12.2 tagged with the CFP 1–158 fragment (rat)
# Chain of WT α12.2 tagged with the CFP 1–158 fragment (rat) (Q02294 whole entry, the tested form may be a part): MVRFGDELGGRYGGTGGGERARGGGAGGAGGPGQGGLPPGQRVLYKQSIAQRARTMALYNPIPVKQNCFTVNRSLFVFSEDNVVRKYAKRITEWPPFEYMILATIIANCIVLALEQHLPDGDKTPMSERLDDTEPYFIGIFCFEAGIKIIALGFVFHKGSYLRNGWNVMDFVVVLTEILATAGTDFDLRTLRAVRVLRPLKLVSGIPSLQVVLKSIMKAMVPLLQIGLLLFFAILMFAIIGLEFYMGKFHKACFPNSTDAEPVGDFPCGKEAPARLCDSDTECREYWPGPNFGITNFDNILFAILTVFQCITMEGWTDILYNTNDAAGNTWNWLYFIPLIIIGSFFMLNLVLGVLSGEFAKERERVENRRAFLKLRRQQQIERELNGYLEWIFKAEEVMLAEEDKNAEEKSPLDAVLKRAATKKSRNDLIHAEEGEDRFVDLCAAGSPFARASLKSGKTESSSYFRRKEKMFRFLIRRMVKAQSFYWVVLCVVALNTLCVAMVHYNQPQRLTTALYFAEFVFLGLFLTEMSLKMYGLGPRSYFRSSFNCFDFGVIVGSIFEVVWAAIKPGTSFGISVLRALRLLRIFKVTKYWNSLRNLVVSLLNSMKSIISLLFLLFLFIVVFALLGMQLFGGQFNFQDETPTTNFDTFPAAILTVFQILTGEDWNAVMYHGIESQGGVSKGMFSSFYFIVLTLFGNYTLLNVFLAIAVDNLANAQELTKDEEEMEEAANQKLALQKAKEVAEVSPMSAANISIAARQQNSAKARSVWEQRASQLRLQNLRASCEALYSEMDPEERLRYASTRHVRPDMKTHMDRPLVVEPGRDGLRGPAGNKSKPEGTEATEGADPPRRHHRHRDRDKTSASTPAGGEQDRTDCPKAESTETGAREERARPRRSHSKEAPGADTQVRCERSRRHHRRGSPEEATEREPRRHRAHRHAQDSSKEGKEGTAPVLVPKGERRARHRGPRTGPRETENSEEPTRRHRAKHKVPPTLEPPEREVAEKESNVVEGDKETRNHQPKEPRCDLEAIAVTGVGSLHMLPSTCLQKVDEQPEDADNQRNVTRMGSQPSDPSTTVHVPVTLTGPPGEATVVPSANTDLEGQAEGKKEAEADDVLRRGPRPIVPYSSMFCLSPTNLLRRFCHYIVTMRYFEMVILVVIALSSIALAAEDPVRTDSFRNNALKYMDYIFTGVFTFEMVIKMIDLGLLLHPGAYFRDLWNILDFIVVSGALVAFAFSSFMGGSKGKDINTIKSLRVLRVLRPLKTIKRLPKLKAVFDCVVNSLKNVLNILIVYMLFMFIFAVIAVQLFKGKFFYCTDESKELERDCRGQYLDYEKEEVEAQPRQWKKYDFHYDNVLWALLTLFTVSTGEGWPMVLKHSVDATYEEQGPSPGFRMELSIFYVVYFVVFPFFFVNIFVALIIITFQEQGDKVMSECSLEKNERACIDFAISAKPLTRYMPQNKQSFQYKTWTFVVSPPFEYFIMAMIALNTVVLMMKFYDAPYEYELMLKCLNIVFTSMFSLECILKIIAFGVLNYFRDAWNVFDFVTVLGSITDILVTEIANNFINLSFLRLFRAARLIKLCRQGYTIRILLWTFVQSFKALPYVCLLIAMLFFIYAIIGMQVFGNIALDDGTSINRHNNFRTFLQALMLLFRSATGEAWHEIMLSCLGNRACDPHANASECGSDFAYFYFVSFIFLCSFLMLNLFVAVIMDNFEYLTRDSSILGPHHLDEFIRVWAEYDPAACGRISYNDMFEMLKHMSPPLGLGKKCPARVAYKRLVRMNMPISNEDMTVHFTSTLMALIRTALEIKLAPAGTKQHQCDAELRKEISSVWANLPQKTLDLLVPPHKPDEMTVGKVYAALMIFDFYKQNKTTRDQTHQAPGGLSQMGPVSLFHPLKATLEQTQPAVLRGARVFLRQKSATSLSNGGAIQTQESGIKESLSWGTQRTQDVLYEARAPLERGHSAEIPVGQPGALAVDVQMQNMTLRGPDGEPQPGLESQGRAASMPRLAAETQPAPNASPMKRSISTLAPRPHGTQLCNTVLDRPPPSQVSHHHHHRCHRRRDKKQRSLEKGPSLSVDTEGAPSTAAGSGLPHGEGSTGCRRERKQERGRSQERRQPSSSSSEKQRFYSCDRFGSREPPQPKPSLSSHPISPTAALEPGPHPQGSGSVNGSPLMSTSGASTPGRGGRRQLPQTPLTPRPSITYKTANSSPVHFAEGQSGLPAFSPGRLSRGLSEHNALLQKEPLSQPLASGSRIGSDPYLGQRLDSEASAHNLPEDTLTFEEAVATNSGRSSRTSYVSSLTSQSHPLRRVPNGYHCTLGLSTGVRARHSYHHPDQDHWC
substance,measurement,setting,value
β3-core tagged with the CFP 159–238 fragment (from UniProt P54287 16-366) (domain or fragment),median ratio of cyan (BiFC) to red fluorescence,[1],0.23
same,median ratio of cyan (BiFC) to red fluorescence,[2],0.32
same,median ratio of cyan (BiFC) to red fluorescence,[3],0.77
